Residue numbers refer to the chain shown, from its start. Names and notes keep the numbering of the source. Values belong to the binder of their own block, whether it stands above or below them.
Target: plasma purified human complement protein C3 (human) (UniProt P01024)
Experiment: cell-based or functional assay

Sequence of plasma purified human complement protein C3 (human) (P01024 23-667, chain 1 of 2): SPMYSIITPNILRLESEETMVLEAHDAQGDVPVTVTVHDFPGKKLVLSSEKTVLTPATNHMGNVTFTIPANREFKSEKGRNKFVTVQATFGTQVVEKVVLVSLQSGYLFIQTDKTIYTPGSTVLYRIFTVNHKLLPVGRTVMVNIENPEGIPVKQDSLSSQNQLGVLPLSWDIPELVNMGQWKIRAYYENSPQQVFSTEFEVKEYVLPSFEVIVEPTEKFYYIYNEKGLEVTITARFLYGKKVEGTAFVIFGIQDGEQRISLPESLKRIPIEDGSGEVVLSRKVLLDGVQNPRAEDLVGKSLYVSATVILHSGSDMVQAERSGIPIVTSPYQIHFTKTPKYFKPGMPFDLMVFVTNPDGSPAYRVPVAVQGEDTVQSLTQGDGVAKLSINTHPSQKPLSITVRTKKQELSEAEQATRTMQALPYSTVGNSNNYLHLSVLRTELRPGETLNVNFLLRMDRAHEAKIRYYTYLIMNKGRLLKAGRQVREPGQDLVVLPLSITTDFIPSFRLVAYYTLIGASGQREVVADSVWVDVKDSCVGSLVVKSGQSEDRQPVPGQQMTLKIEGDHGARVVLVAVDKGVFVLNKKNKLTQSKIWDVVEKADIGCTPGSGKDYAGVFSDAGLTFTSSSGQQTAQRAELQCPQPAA
Sequence of plasma purified human complement protein C3 (human) (P01024 672-1663, chain 2 of 2): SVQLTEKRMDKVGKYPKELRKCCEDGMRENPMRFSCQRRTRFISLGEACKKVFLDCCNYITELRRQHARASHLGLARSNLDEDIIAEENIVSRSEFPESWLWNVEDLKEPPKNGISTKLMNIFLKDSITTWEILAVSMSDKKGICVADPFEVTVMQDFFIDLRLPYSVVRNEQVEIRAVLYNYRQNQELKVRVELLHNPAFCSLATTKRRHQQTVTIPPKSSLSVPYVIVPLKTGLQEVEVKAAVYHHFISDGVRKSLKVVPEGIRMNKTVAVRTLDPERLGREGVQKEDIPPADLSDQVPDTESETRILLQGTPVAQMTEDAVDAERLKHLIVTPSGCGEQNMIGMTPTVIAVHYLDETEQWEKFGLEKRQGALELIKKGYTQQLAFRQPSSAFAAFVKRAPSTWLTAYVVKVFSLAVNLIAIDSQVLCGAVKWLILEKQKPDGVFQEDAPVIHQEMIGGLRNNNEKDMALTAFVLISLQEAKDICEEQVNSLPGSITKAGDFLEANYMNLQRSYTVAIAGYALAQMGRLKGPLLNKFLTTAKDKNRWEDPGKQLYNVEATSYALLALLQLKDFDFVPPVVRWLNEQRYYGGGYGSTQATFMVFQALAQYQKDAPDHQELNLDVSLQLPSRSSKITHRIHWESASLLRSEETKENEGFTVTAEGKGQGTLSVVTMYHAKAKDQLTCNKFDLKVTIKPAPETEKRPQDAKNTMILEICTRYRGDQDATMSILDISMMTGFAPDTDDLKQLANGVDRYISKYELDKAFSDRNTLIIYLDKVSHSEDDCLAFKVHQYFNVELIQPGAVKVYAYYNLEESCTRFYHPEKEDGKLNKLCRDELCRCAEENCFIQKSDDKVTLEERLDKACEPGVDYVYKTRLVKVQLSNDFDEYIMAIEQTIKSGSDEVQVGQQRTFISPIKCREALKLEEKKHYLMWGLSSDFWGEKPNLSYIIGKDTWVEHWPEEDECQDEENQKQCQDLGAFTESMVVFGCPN

EC50 of hC3 cleavage: 5.53 nM
B1: MTSP-1 Q38H/I41S/D60bT/F60eS/Y60gW/F97D/F99L/C122S/G151H/Q175L/Q192D (enzyme)
chain: VVGGTDADEGEWPWQVSLHALGHGHSCGASLISPNWLVSAAHCYIDTRGSRWSDPTQWTAFLGLHDQSQRSAPGVQERRLKRIISHPFFNDDTLDYDIALLELEKPAEYSSMVRPISLPDASHVFPAGKAIWVTGWGHTQYGGTHALILQKGEIRVINQTTCENLLPQLITPRMMCVGFLSGGVDSCDGDSGGPLSSVEADGRIFQAGVVSWGDGCAQRNKPGVYTRLPLFRDWIKENTGV

EC50 hC3 cleavage: 4.9 nM
B2: MTSP-1 protease domain Q38H/I41S/D60bT/F60eS/Y60gW/F97D/F99L/C122S/G151N/Q175L/Q192D (enzyme)
chain: B1 chain with H145N

EC50 hC3 cleavage: 3.72 nM
B3: MTSP-1 protease domain Q38H/I41A/D60bV/F60eR/Y60gW/F97D/F99L/C122S/G151H/Q175L/Q192D (enzyme)
chain: B1 chain with S26A, T47V, S50R

EC50 hC3 cleavage: 25.7 nM
B4: MTSP-1 protease domain Q38H/I41S/D60bT/F60eS/Y60gW/F97D/T98P/F99L/C122S/G151H/Q175L/Q192E (enzyme)
chain: B1 chain with T93P, D188E

EC50 of hC3 cleavage: 13.9 nM
B5: MTSP-1 protease domain with C122S (enzyme)
chain: B1 chain with H23Q, S26I, T47D, S50F, W52Y, D92F, L94F, H145G, L169Q, D188Q

EC50 hC3 cleavage: 2.52 nM
B6: MTSP-1 protease domain Q38H/I41A/D60bV/F60eR/Y60gW/D96I/F97N/T98G/F99L/C122S/G151H/Q175L/Q192D (enzyme)
chain: B1 chain with S26A, T47V, S50R, D91I, D92N, T93G

EC50 hC3 cleavage: 3.04 nM
B7: MTSP-1 protease domain Q38H/I41S/D60bT/F60eS/Y60gW/D96I/F97N/T98G/F99L/C122S/G151N/Q175L/Q192D (enzyme)
chain: B1 chain with D91I, D92N, T93G, H145N

EC50 hC3 cleavage: 7.04 nM
B8: MTSP-1 protease domain Q38H/I41A/D60bV/F60eR/Y60gW/F97D/F99L/C122S/G151N/Q175L/Q192D (enzyme)
chain: B1 chain with S26A, T47V, S50R, H145N

EC50 hC3 cleavage: 6.69 nM
B9: MTSP-1 protease domain Q38H/I41S/D60bT/F60eT/ins97aV/F97D/T98P/F99L/C122S/H143Q/G151Q/Q175L/Q192G (enzyme)
chain: VVGGTDADEGEWPWQVSLHALGHGHSCGASLISPNWLVSAAHCYIDTRGTRYSDPTQWTAFLGLHDQSQRSAPGVQERRLKRIISHPFFNDDVPLDYDIALLELEKPAEYSSMVRPISLPDASHVFPAGKAIWVTGWGQTQYGGTQALILQKGEIRVINQTTCENLLPQLITPRMMCVGFLSGGVDSCGGDSGGPLSSVEADGRIFQAGVVSWGDGCAQRNKPGVYTRLPLFRDWIKENTGV

EC50 hC3 cleavage: 8.5 nM
B10: MTSP-1 protease domain Q38H/I41S/D60bQ/F60eQ/F97D/ins97aV/T98P/F99L/C122S/H143Q/G151Q/Q175L/Q192G (enzyme)
chain: B9 chain with T47Q, T50Q

EC50 of hC3 cleavage: 2.07 nM
B11: MTSP-1 Q38H/I41A/D60bV/F60eR/Y60gW/D96S/ins97aR/F97A/T98S/F99L/C122S/G151N/Q175L/Q192T (enzyme)
chain: VVGGTDADEGEWPWQVSLHALGHGHACGASLISPNWLVSAAHCYIDVRGRRWSDPTQWTAFLGLHDQSQRSAPGVQERRLKRIISHPFFNSARSLDYDIALLELEKPAEYSSMVRPISLPDASHVFPAGKAIWVTGWGHTQYGGTNALILQKGEIRVINQTTCENLLPQLITPRMMCVGFLSGGVDSCTGDSGGPLSSVEADGRIFQAGVVSWGDGCAQRNKPGVYTRLPLFRDWIKENTGV

EC50 hC3 cleavage: 66.7 nM
B12: MTSP-1 protease domain Q38H/D60bT/F60eS/Y60gW/ins97aV/F97D/T98P/F99L/C122S/G151H/Q175L/Q192E (enzyme)
chain: B9 chain with S26I, T50S, Y52W, Q139H, Q146H, G189E

EC50 hC3 cleavage: 1.83 nM
B13: MTSP-1 protease domain Q38H/I41A/D60bV/F60eR/Y60gW/D96P/ins97aN/F97W/T98G/F99L/C122S/G151H/Q175L/Q192D (enzyme)
chain: B11 chain with S91P, A92W, R93N, S94G, N146H, T189D

EC50 of hC3 cleavage: 1.51 nM
B14: MTSP-1 Q38H/I41A/D60bV/F60eR/Y60gW/D96P/ins97aN/F97W/T98G/F99L/C122S/G151N/Q175L/Q192E (enzyme)
chain: B11 chain with S91P, A92W, R93N, S94G, T189E

EC50 hC3 cleavage: 1.31 nM
B15: MTSP-1 protease domain Q38H/I41S/D60bT/F60eS/Y60gW/ins97aV/F97D/T98P/F99L/C122S/G151H/Q175L (enzyme)
chain: B9 chain with T50S, Y52W, Q139H, Q146H, G189Q

EC50 hC3 cleavage: 3.83 nM
B16: MTSP-1 protease domain Q38H/I41S/F60eS/Y60gW/ins97aV/F97D/T98P/F99L/C122S/G151H/Q175L/Q192E (enzyme)
chain: B9 chain with T47D, T50S, Y52W, Q139H, Q146H, G189E

EC50 hC3 cleavage: 1.57 nM
B17: MTSP-1 protease domain Q38H/I41A/D60bV/F60eR/Y60gW/D96I/ins97aN/F97Y/T98G/F99L/C122S/G151H/Q175L/Q192D (enzyme)
chain: B11 chain with S91I, A92Y, R93N, S94G, N146H, T189D

EC50 of hC3 cleavage: 4.22 nM
B18: MTSP-1 Q38H/I41S/D60bA/Y60gG/ins97aV/F97D/T98P/F99L/C122S/H143T/G151N/Q175L/Q192A (enzyme)
chain: B9 chain with T47A, T50F, Y52G, Q139T, Q146N, G189A

EC50 hC3 cleavage: 10.4 nM
B19: MTSP-1 protease domain Q38H/I41S/D60bT/Y60gW/ins97aV/F97D/T98P/F99L/C122S/G151H/Q175L/Q192E (enzyme)
chain: B9 chain with T50F, Y52W, Q139H, Q146H, G189E

EC50 of hC3 cleavage: 4.58 nM
B20: MTSP-1 Q38H/I41S/D60bF/F60eQ/Y60gF/ins97aV/F97D/T98P/F99L/C122S/H143A/G151N/Q175L/Q192A (enzyme)
chain: B9 chain with T47F, T50Q, Y52F, Q139A, Q146N, G189A

EC50 hC3 cleavage: 7.82 nM
B21: MTSP-1 protease domain Q38H/I41S/D60bT/F60eS/Y60gW/ins97aV/F97D/F99L/C122S/G151H/Q175L/Q192E (enzyme)
chain: B9 chain with T50S, Y52W, P94T, Q139H, Q146H, G189E

EC50 of hC3 cleavage: 12.9 nM
B22: MTSP-1 Q38H/I41S/D60bS/F60eQ/Y60gF/ins97aV/F97D/T98P/F99L/C122S/H143R/G151N/Q175L/Q192T (enzyme)
chain: B9 chain with T47S, T50Q, Y52F, Q139R, Q146N, G189T

EC50 hC3 cleavage: 11.5 nM
B23: MTSP-1 protease domain Q38H/I41S/D60bT/F60eS/Y60gW/ins97aV/F97D/T98P/C122S/G151H/Q175L/Q192E (enzyme)
chain: B9 chain with T50S, Y52W, L95F, Q139H, Q146H, G189E

EC50 hC3 cleavage: 4.13 nM
B24: MTSP-1 protease domain Q38H/I41S/D60bT/F60eS/Y60gW/D96Y/ins97aV/F97E/T98G/F99L/C122S/G151N/Q175L/Q192D (enzyme)
chain: B11 chain with A26S, V47T, R50S, S91Y, A92E, R93V, S94G, T189D

EC50 hC3 cleavage: 6.86 nM
B25: MTSP-1 protease domain Q38H/I41S/D60bT/F60eS/Y60gW/D96K/ins97aV/F97G/T98P/F99L/C122S/G151H/Q175L/Q192D (enzyme)
chain: B9 chain with T50S, Y52W, D91K, D92G, Q139H, Q146H, G189D

EC50 hC3 cleavage: 4.86 nM
B26: MTSP-1 protease domain Q38H/I41S/D60bT/F60eS/Y60gW/ins97aV/F97D/T98P/F99L/C122S/Q175L/Q192E (enzyme)
chain: B9 chain with T50S, Y52W, Q139H, Q146G, G189E

EC50 of hC3 cleavage: 3.07 nM
B27: MTSP-1 Q38H/I41S/D60bF/F60eT/ins97aV/F97D/T98P/F99L/C122S/H143Q/G151N/Q175L/Q192G (enzyme)
chain: B9 chain with T47F, Q146N

EC50 hC3 cleavage: 1.11 nM
B28: MTSP-1 protease domain Q38H/I41A/D60bV/F60eR/Y60gW/D96P/ins97aN/F97W/T98G/F99L/C122S/G151H/Q175L/Q192E (enzyme)
chain: B11 chain with S91P, A92W, R93N, S94G, N146H, T189E

EC50 hC3 cleavage: 3.19 nM
B29: MTSP-1 protease domain Q38H/I41S/D60bT/F60eS/Y60gW/ins97aV/T98P/F99L/C122S/G151H/Q175L/Q192E (enzyme)
chain: B9 chain with T50S, Y52W, D92F, Q139H, Q146H, G189E

EC50 hC3 cleavage: 1.59 nM
B30: MTSP-1 protease domain Q38H/I41S/D60bT/F60eS/Y60gW/D96L/ins97aG/F97D/T98N/F99L/C122S/G151H/Q175L/Q192E (enzyme)
chain: B9 chain with T50S, Y52W, D91L, V93G, P94N, Q139H, Q146H, G189E

EC50 hC3 cleavage: 1.17 nM
B31: MTSP-1 protease domain Q38H/I41S/D60bT/F60eS/Y60gW/D96F/F97D/ins97aE/T98S/F99L/C122S/G151H/Q175L/Q192A (enzyme)
chain: B11 chain with A26S, V47T, R50S, S91F, A92D, R93E, N146H, T189A

EC50 hC3 cleavage: 2.54 nM
B32: MTSP-1 protease domain Q38H/I41A/D60bV/F60eR/Y60gW/D96P/ins97aN/F97W/T98G/F99L/C122S/G151N/Q175L/Q192D (enzyme)
chain: B11 chain with S91P, A92W, R93N, S94G, T189D

EC50 hC3 cleavage: 6.33 nM
B33: MTSP-1 protease domain I41S/D60bT/F60eS/Y60gW/ins97aV/F97D/T98P/F99L/C122S/G151H/Q175L/Q192E (enzyme)
chain: B9 chain with H23Q, T50S, Y52W, Q139H, Q146H, G189E

EC50 of hC3 cleavage: 4.62 nM
B34: MTSP-1 Q38H/I41S/D60bT/F60eS/Y60gW/D96Y/ins97aV/F97E/T98G/F99L/C122S/G151H/Q175L/Q192D (enzyme)
chain: B9 chain with T50S, Y52W, D91Y, D92E, P94G, Q139H, Q146H, G189D

EC50 hC3 cleavage: 4.07 nM
B35: MTSP-1 protease domain Q38H/I41S/D60bT/F60eS/Y60gW/F97D/ins97aA/T98P/F99L/C122S/G151H/Q175L/Q192E (enzyme)
chain: B9 chain with T50S, Y52W, V93A, Q139H, Q146H, G189E

EC50 hC3 cleavage: 4.6 nM
B36: MTSP-1 protease domain Q38H/I41A/D60bV/F60eR/Y60gW/D96Q/F97E/ins97aD/T98S/F99L/C122S/G151N/Q175L/Q192R (enzyme)
chain: B11 chain with S91Q, A92E, R93D, T189R

EC50 hC3 cleavage: 11.9 nM
B37: MTSP-1 protease domain Q38H/I41S/D60bT/F60eS/Y60gW/F97D/ins97aV/T98P/F99L/C122S/G151H/Q192E (enzyme)
chain: B9 chain with T50S, Y52W, Q139H, Q146H, L170Q, G189E

EC50 hC3 cleavage: 26.3 nM
B38: MTSP-1 protease domain Q38H/I41S/D60bS/F60eQ/ins97aV/F97D/T98P/F99L/C122S/H143A/G151N/Q175L/Q192G (enzyme)
chain: B9 chain with T47S, T50Q, Q139A, Q146N

EC50 of hC3 cleavage: 21 nM
B39: MTSP-1 Q38H/I41S/D60bT/F60eH/Y60gF/ins97aV/F97D/T98P/F99L/C122S/H143R/G151N/Q175L/Q192S (enzyme)
chain: B9 chain with T50H, Y52F, Q139R, Q146N, G189S

Reference: US20240018502A1
